Drawing on patent US20100290984A1 (DUKE UNIVERSITY, published 2010), this text covers binding result, Ka and koff for 4 molecules.

No end group written: not given here.

Experiment [1] has as its target T1, MRP3-derived peptide III (PepIII) (human, also: conjugated to BSA, biotinylated, site not given here).
T1 construct: Same peptide used as BSA conjugate (ELISA) and as biotinylated peptide (SPR)
T1 peptide: DAMADSRQNNTSLRL
The experiment in a line: SPR, BIAcore, biotinylated peptide on chip. In general terms: Surface plasmon resonance follows binding to a sensor surface in real time, without labels.

Experiment [2] addresses T2, MRP3-derived peptide I (PepI) (human, conjugated to BSA in the ELISA; biotinylated in BIAcore and on streptavidin beads (site of attachment not stated)).
T2 construct: Same peptide used as BSA conjugate (ELISA) and as biotinylated peptide (SPR on SA chip, bead assay); also called PepI antigen
T2 peptide: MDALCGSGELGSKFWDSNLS
The experiment in a line: ELISA, peptide-BSA coated, purified scFv, anti-His-HRP. The procedure:
(§1) A 96-well plate was coated with 10 μg/ml of specific MRP3-derived peptides conjugated with BSA as antigen and BSA and other appropriate control antigens. The rest of the protocol was as described above except that the purified scFv antibodies were added in serial dilution to the wells, and the secondary Ab used was HRP-conjugated anti-His antibody at 1:5000 dilution (Invitrogen, Carlsbad, Calif.). To check for cross-reactivity of the recombinant scFvs, the ELISA plate was coated with different peptide antigens (i.e., PepI, PepII, PepIII, PepIV) derived from MRP3, conjugated to BSA with other controls. ScFv antibodies were then added at a 10 μg/ml concentration to each well.
Background: An ELISA detects its analyte on a solid surface through an enzyme-linked reagent.

For experiment [3], the target named is T3, MRP3-derived peptide II (PepII) (human, also: conjugated to BSA, biotinylated, site not given here).
T3 construct: Same peptide used as BSA conjugate (ELISA) and as biotinylated peptide (SPR on SA chip, bead assay); also called PepII antigen
T3 peptide: VHTENPDLTPCF
Described as above. The procedure:
as §1

Experiment [4] concerns the target T4, MRP3-derived peptide IV (PepIV) (human, also: conjugated to BSA, biotinylated, site not given here).
T4 construct: Same peptide used as BSA conjugate (ELISA) and as biotinylated peptide (SPR)
T4 peptide: KIRSPQSFFDTTPSGRI
Described as above. The method, then: as §1

In experiment [5] the target is T5, human multidrug resistance protein 3 (MRP3) (human, UniProt O15438 1-1527).
T5 construct: whole, on cells; ABC transporter; endogenous on human malignant glioma cell lines D54MG, D247MG and pediatric GBM line D2159; also called cell-surface-expressed MRP3; native MRP3
The experiment in a line: indirect flow cytometry on MRP3-expressing glioma cells. The procedure: To determine that the purified anti-MRP3 scFvs bind native MRP3 expressed on the surface of tumor cells, indirect fluorescence-activated cell sorting (FACS) was performed using MRP3-expressing D54MG and D247MG cells under both permeabilized and nonpermeabilized conditions. Indirect FACS analysis of MRP3 expression on the surface of viable malignant pediatric GBM cell line D2159 growing as neuroshperes was also performed.
For cytometric analysis of PepI-58, PepI-25, PepII-89, PepIII-23, and PepIV-17 scFv antibodies, D54MG and D247MG cells (1×10⁶/test) were harvested with 0.02% EDTA/PBS and fixed by resuspending them in 2-4 ml of 10% formaldehyde. After washing, the cells were blocked with 10% normal goat serum (NGS) with and without saponin for 20 min. Saponin was added to facilitate the permeabilization for examining all […] receptors. Cells were washed twice and incubated with anti-his (C-terminus)-FITC conjugated antibody (1:5000, Invitrogen, Carlsbad, Calif.) for an hour at room temperature. Finally, cells were suspended in 0.5% PFA/BSA and freshly analyzed by using a Becton Dickinson FACSort with CellQuest software (Becton Dickinson, San Jose, Calif.).

Experiment [6] addresses T3, MRP3-derived peptide II (PepII). Briefly: SPR, BIAcore 3000, KA=kassoc/kdiss. The procedure:
(§2) Kinetic measurements of purified recombinant scFv were made by surface plasmon resonance using a BIAcore 3000 Biosensor (BIAcore, Piscataway, N.J.). Chips were functionalized with biotinylated peptides derived from MRP3 protein by using HEPES balanced salt solution (HBSS buffer), 10 mM HEPES pH 7.4, 150 mM NaCl, 3.4 mM EDTA, and 0.05% BIAcore surfactant P20. The scFv antibodies were diluted in HBSS buffer and passed over the SA chip at concentrations of 25, 200, and 1000 nM. The flow rate was kept at 30 μl/min, and the injection time was 3 min. Binding constants were calculated from the nonlinear fitting curve by using the BlAevaluation software (BIAcore).
(§3) The association and dissociation rates from the sensograms were in the same range for PepI-58 scFv, PepI-25 scFv, and PepII-89 scFv. […] The final binding affinity was determined by the software developed by BIAcore based on the kinetics calculated among various concentrations of antibody. PepI-25 scFv had kassoc=1.3×10⁵ (mol/L-s)⁻¹, kdiss=2.8×10⁻³ s⁻¹, and KA=kassoc/kdiss, was 4.6×10⁷ (mol/L)⁻¹.

Experiment [7] has the same target. The experiment in a line: SPR, BIAcore 3000, biotinylated peptide on SA chip, scFv in flow. The procedure: as §2
The target in experiment [8] is T2, MRP3-derived peptide I (PepI). Briefly: ELISA, plate coated with MRP3-derived peptides conjugated with BSA, purified scFv, HRP anti-His detection. The method, then:
as §1

Experiment [9] addresses T1, MRP3-derived peptide III (PepIII). The description is as above. The procedure:
as §1

In experiment [10] the target is T4, MRP3-derived peptide IV (PepIV). The description is as above. The procedure: as §1
Experiment [11] addresses T2, MRP3-derived peptide I (PepI). The experiment in a line: SPR, BIAcore 3000, KA=kassoc/kdiss. The method, then:
as §2, §3

For experiment [12] the target is unchanged. Briefly: SPR, BIAcore 3000, biotinylated peptide on SA chip, scFv in flow. The method, then: as §2
Experiment [13] concerns the target T5, human multidrug resistance protein 3 …. Briefly: indirect flow cytometry on viable D2159 cells (surface), anti-His-FITC detection.
For experiment [14], the target named is T3, MRP3-derived peptide II (PepII). The experiment in a line: ELISA, plate coated with MRP3-derived peptides conjugated with BSA, purified scFv, HRP anti-His detection. The method, then:
as §1

Experiment [15] deals with T1, MRP3-derived peptide III (PepIII). The experiment in a line: ELISA, peptide-BSA coated, purified scFv, anti-His-HRP. The method, then:
as §1

The target in experiment [16] is T2, MRP3-derived peptide I (PepI). Briefly: SPR, BIAcore 3000, biotinylated pep-I on SA chip, scFv 25 to 1000 nM. The method, then:
as §2, §3

B1: PepIII-23 scFv (scFv)
scFv: EVQLVQSGGGLVKPGGSLRLSCAASGFSFNNYAGSWVRQAPGKGLEWISALSSGGDTTYYADSVAGRFAISRDNSKNTLYLQMHSLRAEDTAIYYCAQDPVVGAPGYFGLWGRGTLVTVSSGGGGSGGGGSGGGGSQSVLTQPPSASGSSGQSVTISCTGTSSDIGGYNYVSWYQQHPGKAPKLMIYEVSKRPSGVSDRFSGSKSGSTASLHISGLQAEDEADYYCSSYSSNNAPYVFGSGTKVAVLGQPKAAPS
notes: not shown: Myc and hexahistidine tags from the pET 22(+) vector
Regarding B1, the binding result in experiment [1] is recorded as “binds”; in experiment [2], “no binding (tested: 10 µg/ml)”; in [3] it was “no binding (tested: 10 µg/ml)”; in [4], “no binding (tested: 10 µg/ml)”; in [5], “no binding”.

B2: PepII-89 scFv (scFv)
scFv: QVQLVQSGGGVVQPGRSLRLSCAASGFTFSSYGMHWVRQDPGKGLMWVSSISTDGSATKYADSVKGRFTISRDNAKNTVSLQMNSLRAEDTAVYYCVGGFLGWWGQGTLVTVSSGGGGSGGGGSGGGGSEIVLTQSPATLSLSPGERATLSCRASQSVGGSYLAWYQQKPGQAPRLLIYGASRRATGIPARFSGSGSGTDFTLTISSLQPEDFASYFCQQTNTFPLTFGGGTKVEIKRTVAAPTAAA
notes: also called anti-MRP3 PepII-89scFv; not shown: Myc and hexahistidine tags from the pET 22(+) vector, at the C terminus
Consider B2, for which the Ka in experiment [6] was found to be 1e+07 M⁻¹. Also, in [7], the koff (commonly the first-order rate constant of dissociation) is 0.005 s⁻¹. For the same molecule, the binding result in experiment [8], in experiment [9] and in [10] was “no binding (tested: 10 ug/ml)” in each case.

B3: PepI-58 scFv (scFv)
scFv: EVQLVQSGGGLVQPGGSLRLSCSASGFTFSNYAMHWVRRAPGKGLEYVSAISSNGGSTYYADSVKGRFTISRDNPKNTLYLQMNSLRAEDTAVYYCVRGRPYPLDVWGKGTLVTVSSGGGGSGGGGSGGGGSQSVLTQPPSASGTPGQRVTISCSGSSSNIESHAVNWYQHLPGSAPKLLIYFNNHRPSGVPERFSASKSGTSASLAISGLQSEDEADYYCAAWDDSLNGPVFGGGTKLTVLGQPKAAPS
notes: also called anti-MRP3 PepI-58scFv; not shown: Myc and hexahistidine tags from the pET 22(+) vector, at the C terminus
In experiment [11], B3 came in with a Ka of 2.1e+07 M⁻¹. Moreover, the koff in experiment [12] is 0.0034 s⁻¹. Also, the binding result in experiment [13] is listed as “binds”; in [14] it was “no binding (tested: 10 ug/ml)”; in experiment [9] it was “no binding (tested: 10 ug/ml)”; in experiment [10], “no binding (tested: 10 ug/ml)”.

B4: PepI-25 scFv (scFv)
scFv: EVQLVESGGGLVQPGGSLRLSCAASGFTFSNYAMTWVRQAPGKGLEWVSAISGSGGSTYYADSVKGRFTISRDNSKNTLYLQMNSLRAEDTAVYYCATGDLDYWGQGTTVTVSSGGGGSGGGGSGGGGSQTVVTQEPSLTVSPGGTVTLTCASSTGAVTSGYYPNWFQQKPGQAPRALIYSTSNKHSWTPARFSGSLLGGKAALTLSGVQPEDEAEYYCLLYYGGAQPYVVFGGGTKVTVLGQPKAAPS
notes: as for B1
The molecule B4 returned a Ka in [11] of 4.6e+07 M⁻¹. Moreover, the binding result is on record as “no binding (tested: 10 µg/ml)” in experiment [3], “no binding (tested: 10 µg/ml)” in experiment [15], “no binding (tested: 10 µg/ml)” in experiment [4] and “binds” in experiment [13]. The koff in experiment [16] is 0.0028 s⁻¹.
